Measured values taken from the domain aggregation screens of Martell et al. (2025).

Assay: soluble fraction after stress (log2 fold change); higher = more stays soluble; pooled small domains, quantitative proteomics
Details: stress: 75 degC
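Also: 20 min heating vs room temperature control held 20 min.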

HMEKTLAERVNDILAEIKMTKQELAMQLNISRSAVSQYLNGKYSSNPEAIEARLRDFVSSYDRG
soluble fraction (log2): -0.292

HMSMEIQEIIRQLREKNDWSQEDMAERVGLSKNGYAKIERGETNLNLERLEQIANLFDLSVIDLIEMS
soluble fraction (log2): -0.764

HMYEPPTEDEKRVLSLLATRESIVRSDVDRLLGVSQSTANRILKQMIEKYLISQEGTGKNTKYIK
soluble fraction (log2): -0.263

HMTPESSLHSGLGKILHDALTAKIQLTNFEAKFLSDMQSKYDLNGSFSWLSSKQQTTLEKILAKYGR
soluble fraction (log2): -1.98

HMAEDGNMTFEEYAKRWLARQVRYAPSTLESYRRMLGRVYPFIGAIPINRLRPIALENLLAELRKRT
soluble fraction (log2): -0.582

HMLQGKVSFFNDEKGYGFIKDNNSKDSYFVHINKVEGEIAEGDKVTFELEKGPKGLVAANVKR
soluble fraction (log2): 0.0967

HMRPFAMNLLEKHKADIEVWLKHPNMTNTQIKRLLEELGTSVSVSSIDRFISTSFPKLPKHT
soluble fraction (log2): -0.121

HMHVYSYPAAVKIKNAVGREMMVTLLGRSGTHVQFARQDGEEFVYPISSLDLAAQTLISKYPNDGIKN
soluble fraction (log2): -0.895

HMREWPLWEIFIRGQHGLNHRHVGSLHAPDAAMAIGNARDVYTRRNEGVSIWAVRSADVVASVPSE
soluble fraction (log2): -2.08

HMKVTGITDDILQRLKQQKGYLMLSDKSSPDEIYAAFGVSKKVFKQAIGTLFKQRQIIIEEQGIRLAN
soluble fraction (log2): -1.3

HMRKVVLEEKEANYYAEPNSESELLGVLKRGIHLTVTDVKKEAGSDGWVKLVHPDGQEGWISGRARIRV
soluble fraction (log2): -0.212

HMALQDKYAELLTAANTMGVTNLAVAEKDGTLHVSGTAKSTADYDSLWALYDKIDPNMASGDLMMNI
soluble fraction (log2): 0.36

HMISAEPVGEDLFKVAFPFLGGSTVFEKTIEQFIEEHPSKRIDHIYTVPNPLRLKKADALIFYIITEEK
soluble fraction (log2): -1.07

HMSSQGQNTKTGTVTASALYVRSGAGTNYSQIGYLLKNTKVEIVGQTGSWYKIKFGSGTGYVSSKYIK
soluble fraction (log2): -2.69

HMVSVLDHIVGIGAKRRQSLWNHFGTIDKIKAASIDELLKAPGMNRPSAEAVYYFFEAQRQLRGK
soluble fraction (log2): -1.22

HMYIDANTALLAKRIQAKNGFLPLSDKSTAEEIYAEFGISKKAFKKALGALYKERLVRIGDEGVVWV
soluble fraction (log2): -2.46

HMETQVKVPNVVGMTQSKAIAKLKESKLDYEVQEQKHDGDKGKVVDQSEAEGTYVDRGTKVIIYVSTGE
soluble fraction (log2): -0.437

HMAPRLTERERQVLQLIAEGLTSMQIGDRLHIAASTVDVHRRNLMRKLDLHNVADLTRYAITQGISP
soluble fraction (log2): -0.792

HMEEVYVPDIRDKSISDAKKILSQMGLKYRIEGEGYDDSTVIKDQTPKPGALLAKDSVVIAYINE
soluble fraction (log2): 0.0833

HMGNIALAIARFREMIAEDPNLQPVRLHLAMALMADHQDEAARGQLEKLRSDQLPDDIRKIVDDALAALR
soluble fraction (log2): -1.46

HMATETMGMIIRRLRREHGLTQEELAASIGVTAQAVSKWEKDLGMPDISQIVPLAGAFNVRTDVLFGLE
soluble fraction (log2): -2.65

HMRVPQWLVDKIAAAGIDTHRSGPALKALAAKAGTPEQLDQAIARAKALRRRTGSTQSLNVGLLGSILEGT
soluble fraction (log2): -0.345

HMDQNVSVPKLAGLQVEEANAILKSKGLHIEIIDSIYQKDAVPGAIIEQVPEENSKVKKGRAIYVSVYAK
soluble fraction (log2): -0.65

HMVDSTDLIPLLIKVSREKQGNKKLNWGEWLKIPENIYLKQINENIARKVFEDTNDLIDEAVNYINRKRRN
soluble fraction (log2): -0.963

HMEGIAYDINTAPEHIDLKAEDMMATFNIGKTALWRWVKQKILPPPYEYRSQAAHWTIGQIRDWKTA
soluble fraction (log2): -0.125

HMLKPIHKDWSPNGDAKEILLKAGITEEFIQKELPEFIMYWSERNEESDIWNSKFIAHIRRRWGRFS
soluble fraction (log2): -1.64

HMSWAAQVVDKMTNDQLIKSLNEIVNTGKQLGLDITVEQNGDKNFIMTVKDSKGNVQLVTPIG
soluble fraction (log2): 0.108

HMISDISEIEAIIVEVLKVFPNQLQEYLDGKEKILSFFVGQVMQRTKGRANPSLVNEILKEKIKN
soluble fraction (log2): -1.22

HMDQVYYDLKSLIELLPADQMEVLKMRYFEELSFKKIAQKIDVSINTALGRMRYALINLRALSKKHHID
soluble fraction (log2): -0.272

HMKITKIWFTADHIFGRDEEGKEYSQSLLWYPKLSAASDEERSQYTFGYDGIHWRSLDEDISFESF
soluble fraction (log2): -3.01

HMSMPEVLSDRELEIFRMIGTGMSTGDIAKKLNISVNTIESHRKKIKDKLGIQKGSELVKAAVQWVSTQQ
soluble fraction (log2): -0.741

HMSLANTSVKEMLNDLVKNEEPSKPLSDEALVKIFKEKGVKIARRTVAKYRAELNILPSHLRRT
soluble fraction (log2): -1.56

HMKTVPNVEGEKDGTAQSAIESAGLKVGKVTYQYDDNTSKGLVISQSVKGGEKVKPNTAIDLVVSNGPK
soluble fraction (log2): -0.117

HMGRYDWIEQIDDPVLAERLKHLTEDDLELLTRYVFEDATQKELASQYGIGQQSVSKRLKKLKSFLTK
soluble fraction (log2): -0.355

HMLPELQPGQTFSARIQQALPDNTYRALVAGKQLTLQLPEGAKAGDELELVVLDRSARVIIARQVD
soluble fraction (log2): -0.691

HMESVDRIYERVRRYADDVGTAKIPMKELDDDGPLGTAVSRIRERRKRGELTEEWEARFETLPGWTWAA
soluble fraction (log2): 0.045

HMVEVPEQLRDLLERSIEDLAELSVRSRNSLQKENIQTLGDLVQRTEEEMLGIENFGKKSLTEIAAFL
soluble fraction (log2): -0.217

HMIFTPNGDRVNDVFEIEMGVKLEFQIIILNQQNQTVFKSADPDFKWDGTMLNGEPAPSGTYLYYFSAKD
soluble fraction (log2): 0.207

HMALIGSNLRHLRNERKLSQQELADLIRVGRTTIANIEANLANPGHKTLLEIVKVFDITIDELLHTDLTK
soluble fraction (log2): -1.79

HMEDEVSSSAAYQALLEKGVSKTLARSWVIDYGEAYVLDKVDLTTSQAARGKIKSSTAGFLKAAIEEDFHN
soluble fraction (log2): -0.0992

HMVSSVAAISQMIDEKDRYTSEHSHRVAEYARLIGAHMGFAGEELDSLYRSALLHDIGKIAVPDAILNK
soluble fraction (log2): -0.627

HMQPTVEGLMKALETMTFNERTALALHYGLTGRQPMTFMAIGRYLGISDGRAEALVNSAIRKLR
soluble fraction (log2): -1.8

HMATPKRGFRKQLAPLVQSGTITREEAGELSRSSGDATALRTKIGELMKAGKLTRKEAGELYSDAFPENA
soluble fraction (log2): 0.145

HMARPLLSPREQDVLALIARGFSYSEVARLQAVTVHTIRTHIRNLYAKLSVHSKTEAVFEATRMGLLP
soluble fraction (log2): -1.94

HMDAEELNSKAKDEFTWLEDDESETNLEYRKMVSSEDMAIVAKVAPALAAKLKYQLAHAATNMV
soluble fraction (log2): 0.149

HMDADRILHKTLKPRELEIYQLIKAYLEEHSQIANAKVQEISGLSEATTRRYLNIFVEFGLLKTS
soluble fraction (log2): -0.214

HMSSTAIQAMIRRLIDGEDPRKPLSDARLAETLKASGVPVARRTVAKYRESMSIPSSQDRLRI
soluble fraction (log2): -0.577

HMRNAAGGIYGWMTLHQVAETVKLTEEEVIAITNLPAGIPRDVSLKNIEGVNDEELRALLEAYLEKQ
soluble fraction (log2): -1.34

HMDEEGDALDREYEDQIRLGDEAFDAEDWTSAQRAYTAALELRPDERYPKNRLRRLASLQEDV
soluble fraction (log2): 0.245

HMISKAQLFSEEELTELYRATGYQLENDPEIHREQFEALQAVRAKIEYAVPDVQEKLEQEQNLGQQ
soluble fraction (log2): 0.512

HMKELVEDFASRISNARQSKGWNQSELAKRMAETVNVVKSAESGKSPTDSVIKKLERVLGIILM
soluble fraction (log2): -0.778

HMEKINLLVENNDNYRLDKIIALNMEELSRTQIQEMIGQGLVLVNGKVEKASYKTKLNDQIEITIED
soluble fraction (log2): -0.0065

HMSASLPAAVEDPDLPYRVGAKLRHARWGEGLLVGIQREGSDVIATVHFASVGRKRLSLQYAHLEE
soluble fraction (log2): -2.17

HMRIQTVDYNTFISMVEDGKVDAAEIQQQENRILFSDQDQKVYKTAMVPDDDLTQRLLDAGVSTNG
soluble fraction (log2): 0.726

HMKGVPGIGDYVKLSGGSTVGKVLSISGKKAEVAFGLLRTTTELSKLEKVRKPKELLQSGVSS
soluble fraction (log2): -0.0317

HMDKVEQLMQNPVIQEKMSEGDRELLRNASLVVLGRLEDDGSIIQRFVELFGEEAYERLKSELM
soluble fraction (log2): -0.0149

HMKALHEEIAEKIQEQILRSNLAPGDKLDTELELAARYGVSRSTIRQALIQLESAGLIDRLHGRGTFVAD
soluble fraction (log2): 0.59

HMYSKQRELIMEAVFKNRVHPTAEYVYKLLKKDHPELSLGTVYRNLNYWAENNMLKKINVPGGSDRFDGT
soluble fraction (log2): 0.0438

HMDFPYISGIEIAAIKNREFIRIETDKAQEIAIALDKSGIPFSARFSDAEMVLTYDGSYKEQVEDIIAKA
soluble fraction (log2): -0.705

HMQMEDTDALLQVAKEVVAENQDTVEAYLGGREKAFASLIGAAMKKTRGKANPKVIRQLILDLIQ
soluble fraction (log2): 0.564

HMNYTQAQIDRANAVSLEDFLRTQGETLIKSGREYRWKEHDSLTVRGNKWFRHSQSKGGYPIDFVMEFTA
soluble fraction (log2): 0.108

HMRVSNADALIGRRGKANSDIRRGDYGWVAIDGDVWKSKLADDITEDIPMGAIVEVLSRDSIILTVKP
soluble fraction (log2): -0.926

HMKTVKPSQIPYSEFLKLVETDKINDVSMVGRNIIGHLDDGSKFKTYTPPNDPTLIEKLSSHNIVINAAPE
soluble fraction (log2): 0.0923

HMIFEEDILKEFRGSLIFITHDRRFLDNIATRIIELDRGKLLSFPGNFSAYKKAKNEQLANEAVENA
soluble fraction (log2): -0.439

HMPAKIIKKSFVYNPIHRDTEYLAQFLQGEGQVSASGDKLVYYGTVEDISRIKSVLQSVDTPS
soluble fraction (log2): 0.169

HMAVPAALVQAWLELSRRMVAGTQDVGERFAEEARKMHYGETEDRGIRGQATLTEVRDLLDEGIEVLPLLL
soluble fraction (log2): -0.439

HMGVTVDEVHRNFESGMNVVHKKFGAGVVDSFDEGKIRINFDGVIKVFIADVLINSGMLESVSYTH
soluble fraction (log2): -0.832

HMGIAERKEKQKLEIRNAILEASRKLIVEEGFEKVTMRKIADLIEYSPTTVYLYFKDKNEILFHLHQ
soluble fraction (log2): -1.54

HMARKFQKDTGYLNKKERTWLLDFFPSLKKYLYTGAYIRSIIVVESNVTYTDKELPSNYTFTYKFA
soluble fraction (log2): -0.522

HMLTEEVEISLMDMTKPTQPATIKTTATIQKGATTVMPKQIKMPEGYEFYGNYKMDQPFELTMTFVVKKI
soluble fraction (log2): -1.17

HMSDYVLLYSGLNTSDTTFLAYSFQEKGIRYKMPNPDEIEVRVQDVDQARRIAAGAQLGGQVS
soluble fraction (log2): -0.536

HMTQLEVDLFERLITISGVGPRLALAVLSGLEPPDLLRAIQDSDIVRLQGIPGVGKKTAERISLELKDKLS
soluble fraction (log2): -1.35

HMIDVNLVQRGKTLHLRRRVPMRYSSVERREYVSISLKTDSEAEARRKAGAAWDQMIAAWEARLA
soluble fraction (log2): -0.382

HMYRLDVEISDEIKRDIDEETLSEIKGIIAEDPRPSYQNDETRIYRFTFAGREISFRVKDRTATVTEIL
soluble fraction (log2): -0.921

HMQENKVLEGKVLEKKKKKVFVDLSPFGVGVIRGVNYLEAKNELKDIEEGDNIKVRVLEIDNENGFIELAL
soluble fraction (log2): -0.121

HMARNHYETLGVGRTATGDEIRKAYRSEAQKHHPDRGGDAERMQSLNEARDTLLDDQARAAYDQELDL
soluble fraction (log2): 0.154

HMSHLTKKQEEVLLFIRDYYEEEGRSPSYSDIQHHFGLKSKSSVQDYIGYLKKAGFLQKSVGSRAIELV
soluble fraction (log2): -2.52
